Reference: article PMC4067145

How the values were obtained:
[1] = target: T1, U1A;U2A′ LRR domain (human;human, UniProt P09012;P09661 1-282;1-180, |); test: fluorescence titration
[2] = target: T2, U2B″ (human, UniProt P08579 1-225); test: fluorescence titration
[3] = target: T3, U1A (human, UniProt P09012 1-282); test: fluorescence titration
[4] = target: U2B″;U2A′ LRR domain (human;human, UniProt P08579;P09661 1-225;1-180, |); test: fluorescence titration
[5] = target: T1, U1A;U2A′ LRR domain; test: ITC
[6] = target: T2, U2B″; test: ITC
[7] = target: T3, U1A; test: ITC
[8] = target: T1, U1A;U2A′ LRR domain; test: fluorescence titration; remark: listed apart in the source
[9] = target: T2, U2B″; test: ITC; remark: listed apart in the source
[10] = target: T3, U1A; test: ITC; remark: listed apart in the source

T2 sequence (P08579 whole entry): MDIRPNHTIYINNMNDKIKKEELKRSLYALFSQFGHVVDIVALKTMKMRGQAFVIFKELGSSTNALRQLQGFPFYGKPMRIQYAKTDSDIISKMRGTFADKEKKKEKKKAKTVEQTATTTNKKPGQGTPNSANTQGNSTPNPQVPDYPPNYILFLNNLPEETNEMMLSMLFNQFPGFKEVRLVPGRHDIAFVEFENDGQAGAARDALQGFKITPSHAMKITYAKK
T1 sequence (P09012 whole entry, chain 1 of 2, the tested form may be a part): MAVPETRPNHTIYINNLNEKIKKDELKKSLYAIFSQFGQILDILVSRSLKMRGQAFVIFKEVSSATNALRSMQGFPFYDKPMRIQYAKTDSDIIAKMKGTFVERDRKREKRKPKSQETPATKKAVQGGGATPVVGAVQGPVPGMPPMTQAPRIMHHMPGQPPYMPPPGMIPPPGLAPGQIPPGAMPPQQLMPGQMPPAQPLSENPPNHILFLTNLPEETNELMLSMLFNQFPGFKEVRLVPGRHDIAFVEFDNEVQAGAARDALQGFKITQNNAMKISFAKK
T1 sequence (P09661 1-180, chain 2 of 2): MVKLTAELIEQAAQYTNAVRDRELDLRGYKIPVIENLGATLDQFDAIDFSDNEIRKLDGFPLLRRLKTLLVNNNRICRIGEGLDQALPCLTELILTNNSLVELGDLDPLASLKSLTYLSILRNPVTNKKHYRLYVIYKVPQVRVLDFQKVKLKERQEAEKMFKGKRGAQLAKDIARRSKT
T3 sequence (P09012 whole entry, the tested form may be a part): as the sequence (P09012 whole entry, chain 1 of 2, the tested form may be a part) above
Chain of U2B″;U2A′ LRR domain (P08579 whole entry, chain 1 of 2, the tested form may be a part): as the sequence (P08579 whole entry) above
Chain of U2B″;U2A′ LRR domain (P09661 1-180, chain 2 of 2): as the sequence (P09661 1-180, chain 2 of 2) above

Binder	binding signal [1]	Kd [2] [nM]	Kd [3] [nM]	binding signal [4]	binding signal [5]	Kd [6] [nM]	Kd [7] [nM]	binding signal [8]	Kd [9] [nM]	Kd [10] [nM]
GGGCCCGGUAUUGCAGUACCGCCGGGUCC (structured_RNA) [FAM-SLIV (U2 snRNA stemloop IV)]	89 ± 11 alpha (linkage parameter, fold)	17	58	139 ± 49 alpha (linkage parameter, fold)						
GGGCACAUUGCACCUCGUGUCCAGACUUCGGUC (structured_RNA) [SLII ITC construct]					1.4 ± 7.9 alpha (linkage parameter, fold)	92	< 7			
GGGCCCGGCAUUGCACCUCGCCGGGUCC (structured_RNA) [FAM-SLII (U1 snRNA stemloop II)]		15	0.33	15.8 ± 1.6 alpha (linkage parameter, fold)				7.3 ± 1.3 alpha (linkage parameter, fold)		
GGAGUUUUCCAGGACGUAUUGCAGUACCUCGUCCUGG (structured_RNA) [SLIV ITC construct]					34 ± 17 alpha (linkage parameter, fold)				2.3	100
